Source: patent US9274110B2, “Diagnosis method of active tuberculosis” (priority 2011, dated 2016)

Settings: cell wall of M. smegmatis overexpressing LipY vs control mycobacteria; 0.5 mM substrate, 40 min, 35° C.

B1: LipY: triacylglycerol hydrolase LipY (Rv3097c) of Mycobacterium tuberculosis, SEQ ID NO: 3 (protein, listed as Mycobacterium tuberculosis)
chain: PEVVFIHGSVVSYVVALPEVMSAAATDVASIGSVVATASQGVAGATTTVLAAAEDEVSAAIAALFSGHGQDYQALSAQLAVFHERFVQALTGAAKGYAAAELANASLLQSEFASGIGNGFATIHQEIQRAPTALAAGFTQVPPFAAAQAGIFTGTPSGAAGFDIASLWPVKPLLSLSALETHFAIPNNPLLALIASDIPPLSWFLGNSPPPLLNSLLGQTVQYTTYDGMSVVQITPAHPTGEYVVAIHGGAFILPPSIFHWLNYSVTAYQTGATVQVPIYPLVQEGGTAGTVVPAMAGLISTQIAQHGVSNVSVVGDSAGGNLALAAAQYMVSQGNPVPSSMVLLSPWLDVGTWQISQAWAGNLAVNDPLVSPLYGSLNGLPPTYVYSGSLDPLAQQAVVLEHTAVVQGAPFSFVLAPWQIHDWILLTPWGLLSWPQINQQLGIAASDIHHHHHH
Lipase activity: degradation of para-Nitrophenyl stearate, absorbance at 405 nm: demonstrating the lipase activity
